Measurements taken from patent US20210388087A1 (Chugai, published 2021).
Numbering of substitutions follows the chain as printed.

B1: CE115HA000 A99K (antibody, human IgG1, kappa, L234A L235A, N297A, name in Kabat numbering)
heavy: QVQLVESGGGVVQPGRSLRLSCAASGFTFSNAWMHWVRQAPGKGLEWVAQIKAKSNNYATYYAESVKGRFTISRDDSKNSLYLQMNSLKTEDTAVYYCRYVHYGKYYGVDAWGQGTTVTVSSASTKGPSVFPLAPSSKSTSGGTAALGCLVKDYFPEPVTVSWNSGALTSGVHTFPAVLQSSGLYSLSSVVTVPSSSLGTQTYICNVNHKPSNTKVDKKVEPKSCDKTHTCPPCPAPEAAGGPSVFLFPPKPKDTLMISRTPEVTCVVVDVSHEDPEVKFNWYVDGVEVHNAKTKPREEQYASTYRVVSVLTVLHQDWLNGKEYKCKVSNKALPAPIEKTISKAKGQPREPQVYTLPPSRCELTKNQVSLSCAVKGFYPSDIAVEWESNGQPENNYKTTPPVLDSDGSFFLVSKLTVDKSRWQQGNVFSCSVMHEALHNHYTQKSLSLSPDYKDDDDK
chain: EPKSSDKTHTCPPCPAPELLGGPSVFLFPPKPKDTLMISRTPEVTCVVVDVSHEDPEVKFNWYVDGVEVHNAKTKPREEQYNSTYRVVSVLTVLHQDWLNGKEYKCKVSNKALPAPIEKTISKAKGQPREPQVCTLPPSRDELTKNQVSLWCLVKGFYPSDIAVEWESNGQPENNYKTTPPVLDSDGSFFLYSKLTVDKSRWQQGNVFSCSVMHEALHNRYTQKSLSLSP
light: DIVMTQSPLSLPVTPGEPASISCRSSQSLVHSNRNTYLHWYQQKPGQAPRLLIYKVSNRFSGVPDRFSGSGSGTDFTLKISRVEAEDVGVYYCGQGTQVPYTFGQGTKLEIKRTVAAPSVFIFPPSDEQLKSGTASVVCLLNNFYPREAKVQWKVDNALQSGNSQESVTEQDSKDSTYSLSSTLTLSKADYEKHKVYACEVTHQGLSSPVTKSFNRGEC
notes: one-arm antibody
B2: CE115HA000 D73E (antibody, human IgG1, kappa, L234A L235A, N297A, name in Kabat numbering)
heavy: B1 heavy with D76E, K105A
chain: B1 chain
light: B1 light
notes: one-arm antibody
B3: CE115HA000 A102I (antibody, human IgG1, kappa, L234A L235A, N297A, name in Kabat numbering)
heavy: B1 heavy with K105A, A111I
chain: B1 chain
light: B1 light
notes: one-arm antibody
B4: CE115HA000 A99L (antibody, human IgG1, kappa, L234A L235A, N297A, name in Kabat numbering)
heavy: B1 heavy with K105L
chain: B1 chain
light: B1 light
notes: one-arm antibody
B5: CE115HA000 A99Q (antibody, human IgG1, kappa, L234A L235A, N297A, name in Kabat numbering)
heavy: B1 heavy with K105Q
chain: B1 chain
light: B1 light
notes: one-arm antibody
B6: CE115HA000 A102P (antibody, human IgG1, kappa, L234A L235A, N297A, name in Kabat numbering)
heavy: B1 heavy with K105A, A111P
chain: B1 chain
light: B1 light
notes: one-arm antibody
B7: CE115HA000 D73G (antibody, human IgG1, kappa, L234A L235A, N297A, name in Kabat numbering)
heavy: B1 heavy with D76G, K105A
chain: B1 chain
light: B1 light
notes: one-arm antibody
B8: CE115HA000 D73N (antibody, human IgG1, kappa, L234A L235A, N297A, name in Kabat numbering)
heavy: B1 heavy with D76N, K105A
chain: B1 chain
light: B1 light
notes: one-arm antibody
B9: CE115HA000 D101G (antibody, human IgG1, kappa, L234A L235A, N297A, name in Kabat numbering)
heavy: B1 heavy with K105A, D110G
chain: B1 chain
light: B1 light
notes: one-arm antibody
B10: CE115HA000 A99Y (antibody, human IgG1, kappa, L234A L235A, N297A, name in Kabat numbering)
heavy: B1 heavy with K105Y
chain: B1 chain
light: B1 light
notes: one-arm antibody
B11: CE115HA000 D73K (antibody, human IgG1, kappa, L234A L235A, N297A, name in Kabat numbering)
heavy: B1 heavy with D76K, K105A
chain: B1 chain
light: B1 light
notes: one-arm antibody
B12: CE115HA000 A102Y (antibody, human IgG1, kappa, L234A L235A, N297A, name in Kabat numbering)
heavy: B1 heavy with K105A, A111Y
chain: B1 chain
light: B1 light
notes: one-arm antibody
B13: CE115HA000 D101A (antibody)
heavy: B1 heavy with K105A, D110A
Fc: B1 chain
light: B1 light
notes: one-arm antibody
B14: CE115HA000 D73R (antibody, human IgG1, kappa, L234A L235A, N297A, name in Kabat numbering)
heavy: B1 heavy with D76R, K105A
chain: B1 chain
light: B1 light
notes: one-arm antibody
B15: CE115HA000 A102V (antibody, human IgG1, kappa, L234A L235A, N297A, name in Kabat numbering)
heavy: B1 heavy with K105A, A111V
chain: B1 chain
light: B1 light
notes: one-arm antibody
B16: CE115HA000 D101F (antibody, human IgG1, kappa, L234A L235A, N297A, name in Kabat numbering)
heavy: B1 heavy with K105A, D110F
chain: B1 chain
light: B1 light
notes: one-arm antibody
B17: CE115HA000 D72V (antibody, human IgG1, kappa, L234A L235A, N297A, name in Kabat numbering)
heavy: B1 heavy with D75V, K105A
chain: B1 chain
light: B1 light
notes: one-arm antibody
B18: CE115HA000 A99S (antibody, human IgG1, kappa, L234A L235A, N297A, name in Kabat numbering)
heavy: B1 heavy with K105S
chain: B1 chain
light: B1 light
notes: one-arm antibody
B19: CE115HA000 D73T (antibody, human IgG1, kappa, L234A L235A, N297A, name in Kabat numbering)
heavy: B1 heavy with D76T, K105A
chain: B1 chain
light: B1 light
notes: one-arm antibody
B20: CE115HA000 D72A (antibody, human IgG1, kappa, L234A L235A, N297A, name in Kabat numbering)
heavy: B1 heavy with D75A, K105A
chain: B1 chain
light: B1 light
notes: one-arm antibody
B21: CE115HA000 D73A (antibody, human IgG1, kappa, L234A L235A, N297A, name in Kabat numbering)
heavy: B1 heavy with D76A, K105A
chain: B1 chain
light: B1 light
notes: one-arm antibody
B22: CE115HA000 A99T (antibody, human IgG1, kappa, L234A L235A, N297A, name in Kabat numbering)
heavy: B1 heavy with K105T
chain: B1 chain
light: B1 light
notes: one-arm antibody
B23: CE115HA000 D72E (antibody, human IgG1, kappa, L234A L235A, N297A, name in Kabat numbering)
heavy: B1 heavy with D75E, K105A
chain: B1 chain
light: B1 light
notes: one-arm antibody

These binders were tested against T1, CD3 epsilon homodimer protein (UniProt P07766 23-126) (assay: SPR, CD3 epsilon homodimer on chip, one-arm antibody as analyte;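 further: surface plasmon resonance at 25 °C with CD3 epsilon homodimer amine-coupled to a CM4 sensor chip, antibody injected as analyte, HBS-EP+ as running buffer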).
T1 construct: also called CD3 (CD3 epsilon)
T1 sequence (P07766 23-126): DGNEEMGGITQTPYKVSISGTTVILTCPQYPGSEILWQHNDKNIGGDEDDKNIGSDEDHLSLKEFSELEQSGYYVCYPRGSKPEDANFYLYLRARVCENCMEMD
Procedure: An appropriate amount of CD3 epsilon homodimer protein was immobilized onto Sensor chip CM4 (GE Healthcare Japan Corp.) by the amine coupling method. Then, the antibody having an appropriate concentration was injected thereto as an analyte and allowed to interact with the CD3 epsilon homodimer protein on the sensor chip. Then, the sensor chip was regenerated by the injection of 10 mmol/L glycine-HCl (pH 1.5). The assay was conducted at 25 degrees C., and HBS-EP+(GE Healthcare Japan Corp.) was used as a running buffer. […] Each parameter was calculated using Biacore T200 Evaluation Software (GE Healthcare Japan Corp.).

| Binder | KD ratio (KD of CE115HA000/KD of altered form) |
| --- | --- |
| B1 | 1.4 |
| B2 | 0.56 |
| B3 | 1.29 |
| B4 | 1 |
| B5 | 0.85 |
| B6 | 3.51 |
| B7 | 0.78 |
| B8 | 0.7 |
| B9 | 3.16 |
| B10 | 1.25 |
| B11 | 0.74 |
| B12 | 1 |
| B13 | 0.86 |
| B14 | 0.79 |
| B15 | 1.27 |
| B16 | 0.73 |
| B17 | 1.17 |
| B18 | 0.76 |
| B19 | 0.78 |
| B20 | 1.19 |
| B21 | 0.73 |
| B22 | 0.93 |
| B23 | 0.73 |
